This is an account of results in patent US20140072580, “NOVEL TARGETS FOR TREATMENT OF HYPERCHOLESTEROLEMIA” (THE REGENTS OF THE UNIVERSITY OF CALIFORNIA, published 2014).

Data set [1] concerns the target T1, LXR/RXR heterodimer (LXRalpha (NR1H3)/RXR; isoforms in EMSA not stated) (UniProt Q9Z0Y9;P28700 Q9Z0Y9:1-445,P28700:1-467).
T1 sequence 1: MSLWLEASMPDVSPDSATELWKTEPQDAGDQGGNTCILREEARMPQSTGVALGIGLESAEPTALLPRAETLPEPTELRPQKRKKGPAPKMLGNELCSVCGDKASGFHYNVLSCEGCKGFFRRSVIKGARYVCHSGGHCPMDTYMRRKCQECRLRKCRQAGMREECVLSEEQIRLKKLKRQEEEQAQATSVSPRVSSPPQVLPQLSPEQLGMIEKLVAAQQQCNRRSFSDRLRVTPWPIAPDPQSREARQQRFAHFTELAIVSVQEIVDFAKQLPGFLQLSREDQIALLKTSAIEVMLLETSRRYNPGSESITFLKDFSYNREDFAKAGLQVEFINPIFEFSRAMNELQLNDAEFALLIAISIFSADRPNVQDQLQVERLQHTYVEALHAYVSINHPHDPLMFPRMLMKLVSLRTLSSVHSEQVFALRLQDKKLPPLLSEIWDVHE
T1 sequence 2: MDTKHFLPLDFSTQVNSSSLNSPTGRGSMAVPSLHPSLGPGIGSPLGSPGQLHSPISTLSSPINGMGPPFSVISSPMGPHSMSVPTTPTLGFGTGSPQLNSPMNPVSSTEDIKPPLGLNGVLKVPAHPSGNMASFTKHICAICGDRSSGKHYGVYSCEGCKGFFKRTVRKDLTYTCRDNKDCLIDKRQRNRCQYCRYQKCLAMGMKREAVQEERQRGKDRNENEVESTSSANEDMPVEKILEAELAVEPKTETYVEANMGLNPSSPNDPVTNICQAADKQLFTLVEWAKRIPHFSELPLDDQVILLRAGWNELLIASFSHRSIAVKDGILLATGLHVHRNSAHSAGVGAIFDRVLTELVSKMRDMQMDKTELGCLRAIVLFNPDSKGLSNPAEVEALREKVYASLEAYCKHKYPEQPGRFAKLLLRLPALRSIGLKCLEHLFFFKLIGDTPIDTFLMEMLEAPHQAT
The data set can be described thus: EMSA; binding competed by excess unlabeled Mylip LXRE; protein source not stated. The conditions noted are these: label: radiolabeled. The method, then:
(§1) It also could not be secondary to induction of SREBP-1c, because oxysterols that block SREBP processing still induced Mylip expression (FIG. 6B). LXRs activate target genes by binding to consensus elements (LXREs) in their promoters. We identified an LXRE approximately 2.5 kb upstream of the mouse Mylip translation start site (FIG. 6C) and generated a reporter construct encompassing this region.
(§2) A 10 Kb promotor region upstream of the mMylip transcription initiation site was analyzed for the presence of LXR binding elements. A consensus DR4 site was identified 2454 upstream of the transcription initiation site. Olignoucleotides encompassing this element were designed, annealed and tested for binding to LXR/RXR heterodimers in a standard EMSA assay. A 2.5 kB promotor fragment upstream of the transcription initiation site containing the identified LXRE was amplified by PCR from BAC clone RP23-17N24 using mMylip-prom-FWD […] (SEQ ID NO:20) or mMylip-prom-ΔFWD […] (SEQ ID NO:21) with the common antisense primer mMylip-prom-REV […] (SEQ ID NO:22). Amplified fragments were cloned as SacI/XhoI fragments into pGL3 basic (Promega). Promotor analysis was done as previously described (Joseph et al. (2002) J Biol Chem 277: 11019).

The target of data set [2] is T1, LXR/RXR heterodimer (LXRalpha …). The data set can be described thus: EMSA; no binding to mutant LXRE. The following applies: label: radiolabeled. As to the method:
as §1, §2

B1: Mylip WT DR4 LXRE (dsDNA)
DNA 1: TCCCTACTTAACCTACAATGACCTCAAGTTTC
DNA 2: GAAACTTGAGGTCATTGTAGGTTAAGTAGGGA
In the case of B1, in data set [1], the binding result is “binds”.

B2: Mylip MUT DR4 LXRE (dsDNA)
DNA 1: TCCCTACTTATTCTACAATGTTCTCAAGTTTC
DNA 2: GAAACTTGAGAACATTGTAGAATAAGTAGGGA
For B2, the binding result in data set [2] was “no binding”.
